“Also recorded” adds a separate entry of the source.
Key:
HSC = experiment: LPS-stimulated hepatic stellate cells in vitro; type: cell-based, mouse; conditions: LPS-stimulated Dectin-1−/− HSC, 24 h; FIG. 14D
Experimental: Murine hepatic NPC were collected as previously (Connolly et al., 2009, The Journal of clinical investigation 119, 3213-3225). Briefly, the portal vein was cannulated and infused with 1% Collagenase IV (Sigma). The liver was then removed, minced, and filtered to obtain single cell suspensions. Hepatocytes were excluded with serial low speed (400 RPM) centrifugation followed by high speed (2000 RPM) centrifugation to isolate the NPC, which were then further enriched over a 40% Optiprep (Sigma) gradient. […] In vitro proliferation was measured using the XTT cell proliferation kit (Roche). PKC activity was measured using a PKC Kinase Activity Assay Kit (Abcam). […]
For Western blotting, total protein was isolated from 75 mg liver tissue by homogenization in RIPA buffer with Complete Protease Inhibitor cocktail (Roche). […] The presence of the co-immunoprecipitated proteins were determined by western blotting.

liver regeneration = experiment: 70% partial hepatectomy, liver regeneration; type: in vivo, mouse; conditions: TCRδ−/− mice, 36 h, FIG. 29C
Description: C57BL/6, TCRδ^−/−, and C57BL/6-Trdc^tm1Mal mice were purchased from Jackson (Bar Harbor, Me.). For selected experiments, CD45.1 mice and C57BL/6 controls were purchased from Taconic (Germantown, N.Y.). Dectin-1^−/− mice were a gift from Gordon Brown (University of Aberdeen). Bone marrow chimeric animals were created by irradiating mice (9 Gy) followed by i.v. bone marrow transfer (10^7 cells) as described by us (Ochi et al., The Journal of clinical investigation 2012; 122:4118-29). The 70% partial hepatectomy procedure entailed ligation and removal of the left and median lobes of the liver in 8-12 week-old mice (Mitchell et al., Nat Protoc 2008; 3:1167-70). The sham operation consisted of a midline laparotomy alone. All animal procedures were approved by NYU School of Medicine IACUC.
In selected experiments, NK1.1^+ cells were depleted using an mAb (PK136, 150 μg, eBiosciences, San Diego, Calif.). […]
Liver tissues were fixed in formaldehyde, embedded in paraffin, and stained for B220 (RA3-6B2; BD), BrdU (Bu20a; Sigma), CCL20 (polyclonal, Abcam), CD45 (30-F11; BD), CD68 (KP1; Abcam), Ki67 (16A8; Biolegend), MPO (Rabbit polyclonal; LS Biosciences, Seattle, Wash.), PCNA (PC10; Biolegend). […] Data was quantified by examining 10 high-power fields (HPFs) per slide. […]

macrophages = experiment: Macrophages treated in vitro (M-CSF, M-CSF blockade, TNF-a blockade), CD14 and cytokine expression; type: cell-based, mouse
Experimental: Murine hepatic NPC were collected as previously (Connolly et al., 2009, The Journal of clinical investigation 119, 3213-3225). Briefly, the portal vein was cannulated and infused with 1% Collagenase IV (Sigma). The liver was then removed, minced, and filtered to obtain single cell suspensions. Hepatocytes were excluded with serial low speed (400 RPM) centrifugation followed by high speed (2000 RPM) centrifugation to isolate the NPC, which were then further enriched over a 40% Optiprep (Sigma) gradient. Human liver NPCs were isolated using a similar protocol as we have described ((Ibrahim et al., 2012, Gastroenterology 143, 1061-1072). Human PBMC were isolated by overlaying whole blood diluted 1:1 in PBS over an equal amount of Ficoll. The cells were then spun at 2100 RPM for 21 min at 20° C. and buffy coat harvested to obtain the PBMC as described ((Rehman et al., 2013, Journal of immunology 190, 4640-4649). Single-cell suspensions of murine splenocytes were isolated by manual disruption of whole spleen and RBC lysis. For HSC isolation, the liver was perfused with 1% Collagenase IV and HSCs were enriched over a 2-layer Nicodenz (Sigma) gradient. HSC were used for experiments on day 14 of culture. […] In vitro proliferation was measured using the XTT cell proliferation kit (Roche). PKC activity was measured using a PKC Kinase Activity Assay Kit (Abcam). […]

LPS-induced endotoxemia = LPS-induced endotoxemia / sepsis in mice; type: in vivo, mouse; conditions: WT mice co-administered LPS and M-CSF; FIGS. 7G, 7H
Experimental: C57BL/6 and CD45.1 mice were purchased from Jackson and bred in house. Dectin-1^−/− mice were a gift from Gordon Brown (University of Aberdeen). Mincle^−/− mice were obtained from the MMRRC. Age-matched 6-8 week old mice were used in all experiments. To induce hepatic fibrosis, female mice were treated with thrice weekly injections of TAA (250 mg/kg; Sigma) for 12 weeks as described (Connolly et al., 2009, The Journal of clinical investigation 119, 3213-3225). Alternatively, mice received bi-weekly injections of CCl4 (0.5 ml/kg; Sigma) for the same duration. To induce HCC, male mice were injected i.p. at 2 weeks of age with a single dose of DEN (15 mg/kg, Sigma) followed by bi-weekly injections of CCl4 (0.2 ml/kg) starting at 8 weeks of age ((Dapito et al., 2012, Cancer cell 21, 504-516). Mice were sacrificed 24 weeks later. To induce sepsis, male mice were injected i.p. with a single dose of LPS (15 mg/kg; Sigma). Rectal core body temperature was determined using a MicroTherma 2 temperature probe (Thermoworks). In selected experiments, MyD88 inhibitory peptide (1 mg/kg; Novus), an α-M-CSF neutralizing antibody (2 mg/kg; Clone 5A1, BioXCell), or an α-CD14 neutralizing antibody (4 mg/kg; Clone 4C1, BD Bioscience) was administered immediately preceding each TAA or LPS administration. At the time of sacrifice, blood and liver samples were harvested for analysis. […]

In the case of CN(C)CCCn1cc(C2=C(c3c[nH]c4ccccc34)C(=O)NC2=O)c2ccccc21 [PKC inhibition, GF109203X], the “M-CSF expression in cell culture supernatant” value (HSC) is reported as “abrogated the higher M-CSF expression”.

B1: recombinant mIL-22: recombinant IL-22 (R&D) (protein, UniProt Q9JJY9 34-179, looked up)
Interleukin-22: LPVNTRCKLEVSNFQQPYIVNRTFMLAKEASLADNNTDVRLIGEKLFRGVSAKDQCYLMKQVLNFTLEDVLLPQSDRFQPYMQEVVPFLTKLSNQLSSCHISGDDQNIQKNVRRLKETVKKLGESGEIKAIGELDLLFMSLRNACV
B1 was tested, and the “rate of hepatic regeneration (BrdU incorporation)” value (liver regeneration) was “rescued” and the “rate of hepatic regeneration (BrdU incorporation)” value (liver regeneration; listed as recombinant IL-22) was “impressively restored; also recorded: rescues”.

B2: recombinant M-CSF: recombinant murine M-CSF (R&D) (protein, UniProt P07141 33-552, looked up)
Macrophage colony-stimulating …: KEVSEHCSHMIGNGHLKVLQQLIDSQMETSCQIAFEFVDQEQLDDPVCYLKKAFFLVQDIIDETMRFKDNTPNANATERLQELSNNLNSCFTKDYEEQNKACVRTFHETPLQLLEKIKNFFNETKNLLEKDWNIFTKNCNNSFAKCSSRDVVTKPDCNCLYPKATPSSDPASASPHQPPAPSMAPLAGLAWDDSQRTEGSSLLPSELPLRIEDPGSAKQRPPRSTCQTLESTEQPNHGDRLTEDSQPHPSAGGPVPGVEDILESSLGTNWVLEEASGEASEGFLTQEAKFSPSTPVGGSIQAETDRPRALSASPFPKSTEDQKPVDITDRPLTEVNPMRPIGQTQNNTPEKTDGTSTLREDHQEPGSPHIATPNPQRVSNSATPVAQLLLPKSHSWGIVLPLGELEGKRSTRDRRSPAELEGGSASEGAARPVARFNSIPLTDTGHVEQHEGSSDPQIPESVFHLLVPGIILVLLTVGGLLFYKWKWRSHRDPQTLDSSVGRPEDSSLTQDEDRQVELPV
For B2, the “MCP-1 and TNF-a expression” value (macrophages; macrophages in vitro, cell-culture supernatant, FIG. 7F) was “upregulated”, the CD14 expression (macrophages; macrophages treated with recombinant M-CSF, FIG. 7E) was “increased” and the “LPS-mediated sepsis (serum IL-6, core body temperature)” value (LPS-induced endotoxemia) was “exacerbated”.

Source: patent US20160209425A1, “USE OF DECTIN-1 ACTIVATORS FOR TREATMENT OF LIVER DISORDERS” (NEW YORK UNIVERSITY, priority 2015, published 2016)
